The series can be described thus: yeast display, Sf9 membrane polyspecificity reagent, FACS + sequencing; frameworks hold sequencing errors. The method, boiled down:
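Genes from sorted yeast were amplified by colony PCR, read by MiSeq 2 × 250 sequencing and filtered on CDR length. These cells carried a synthetic nanobody library in Saccharomyces cerevisiae BJ5465 and were sorted by FACS into low and high (top ~1%) gates on anti-HA and streptavidin fluorescence. Polyreactivity is labelled according to the gate of origin.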
For “QVQHVESRGGLVQAGGSLRLSCAASGFTFYYNAMGWYRQAPVKERELVAIRFRGGNTYYADSVKGRFTISRDNAKNTVYLQMNSLKPEDTAVYYCNADDRGSTYVDFVYWGQGTQVTVSS”, the “polyreactivity (PSR sort gate)” value is recorded as “low polyreactivity”.
On to “QVQHVESRGGLVQAGGSLRLSCAASGRIFPRYAMGWYRQAPGKERELVAAISWSGGSTYYADSVKGRFTISRDNAKNTVYLQMNSLKPEDTAVYYCAARGRLRYSGSIIYYWGQGTQVTVSS”, for which the “polyreactivity (PSR sort gate)” value is reported as “high polyreactivity”.
To “QVQHVESRGGLVQAGGSLRLSCAASGRIFTGYAMGWYRQAPGKERELVAAITASGGNTYYADSVKGRFTISRVNAKNTVYLQMNSLTPEDTAVFYCAADFYYYKIQYAYWGQGTQVTVSS” belongs “low polyreactivity”; to “QVQHVESRGGLVQAGGSLRLSCAASGRSFSDYAMGGYRQAAGKERELVASINSGGSTYYADSVKGRFTISRDKAKNTVYLHMNSLKPEDTAVYYCAAGFQLVKGSLSGRAAYYYWGQGTQVTVSS”, “high polyreactivity”.
The same measure for “QVQHVESRGGLVQAGGSLRLSCADSGSIFRAYAKGWYIQAPGKERELVADISRSGGSTYYADSVKGRFTISRDNANNTVYLQMNRLNPEDTAVYYCAAVFYLYSNLYGEYEYWGQGTQVTLSS”: “low polyreactivity”; for “QVQHVESRRGLVQAGGSLRLSCAASGFTFYSYAMGWYRQAPGKEREFVAAGSTYYADSVKGRFTISRDNAKNTDYLQMNSLKPEDTAVYYCATDPIGGWTRPQRYGDDYWGQGTQVTVSS”: “low polyreactivity”; for “QVQHVESVGGLVQAGGSLRLSCAASGSIFEYNAMGWYRQAPGKERELVAAISWSSGTTYYADSVKGRFTISRDNAKNTVYLQMNSLKPEDTAVYYCNAGRYGKDSDYWGQGTQVTVSS”: “low polyreactivity”.
The same measure for “QVQHVVSVGGLVQAGGSLRLSCAASGSTFLLNTMGWYRQAPGKERELVAAISSITGDTYYADSVKGRFTISRDNAKNTVYLQMNSLKPEDTAVYYCAAYLSETRPYLYDYWGLGTQVTVSS”: “low polyreactivity”; for “QVQIEESGGGLVQAGGSLRLICAASGRIFLPYVMGWYRQAPGKERELVATITFGRSTTYADSVKGRFTISRDNAKNTVYLQMNCLKPEDTAFYYCNALSALAVEDGYWGHGTQVTVSS”: “low polyreactivity”; for “QVQIEESGGGLVQAGGSLRLSCAASGLIFGSYVMGWYRQAPGKERELVAAITVRTGTTYYADSVKGRFTISRDNAKNTVYLKMNSLKPEDTAVYYCALRYRPKYGYWGQGTQVTVSS”: “high polyreactivity”.
With “QVQIEESGGGLVQAGGSLRLSCAASGSIFGKYAMGWYRQAPGKERELVAAITWSGGYTRYADSGKGRFTISRDKAKNTVYLLMNSLKPEDTAVYYCADPSTESKYYYWGQGTQVTVSS”, the “polyreactivity (PSR sort gate)” value is “high polyreactivity”.
With “QVQIEESGGGLVQAGGSLRLSCAASGSTFGSYAMGWYRQAPGKEREFVAAISKRGGSTYYADSVKGRFTISRDNAKNTVYLQMNSLKPEDTAVYYCNRRQEYYSLHKTFNYWGQGTQVTVSS”, the “polyreactivity (PSR sort gate)” value was “high polyreactivity”.
Take “QVQIEESGGRLVQAGGILRLSCAASGRPFNVNFKGWNRQAPGKEWELVAAIRYTGGSTYADSVKGRFTISRDNAKNTVYLQMNSLKPEDTAVYYCNADTVFPFDHGMDYWGQGTQVTVSS”: the “polyreactivity (PSR sort gate)” value was “low polyreactivity”.
To “QVQILESGGGLVQAEGSIRLSCDASGRTFRPYAMGWSRQAPGKDRELVAVISYSGVSTYYADSVKGRFTISRDTEQNNVYLLLNSQIPEDTAVYYCLIRFRKTHYDYWGQGSQVTVSS” belongs “high polyreactivity”.
Consider “QVQIVDSGAVIVQAGGSLRLSCDASGRIILINAMGWYRQAPGKERELVAAITSSGGSTYYADSVKGRFTISRDNAKNTVYLQMNSLKPEDTAVYYCAAARYSRYDYWGQGTQVTVSS”, for which the “polyreactivity (PSR sort gate)” value is on record as “high polyreactivity”.
To “QVQIVDSGGGLVQAGCSLRLSCAASGFTFFSYAMGWYRQAHWKERELVAAISRSGGRKYYADSVKGRFTISRDNAKNTVYLLMNSLKPEDTAVYYCAAETKTIPFEYWGQGTQVTVSS” belongs “high polyreactivity”; to “QVQIVDSGGGLVQAGGSLRLSCAASGRIIRGYAMGWYRQAPGKERELVAAITFSGGSPYYADSVKGRFTISRDNAKNTVYLHMNSLKPEDTAVYYCAAAYGGSSYEYNYWGQGTQVTVSS”, “low polyreactivity”; to “QVQIVDSGGGLVQAGGSLSLSCAASGSTIYRYAMGWYRQAPGKERELVAAITSAGSTNYADSVKGRFTISRDNAKNTVYLQMNSLKPEDTAVYYCAADHGRPYFSYDYWGQGTQVTVSS”, “low polyreactivity”.
Regarding “QVQIVESGAGLVQAGGSLSLSCAASGSIFHDNAMGWYRQAPGKERELVAAINRGGSRHYADSVKGRFTISRDNAKNTVYFQMNSLKPEDTAVYYCAADGIRPEVGYWGQGTQVTVSS”, the “polyreactivity (PSR sort gate)” value was “low polyreactivity”.
As for “QVQIVESGGCLVQAGGSLRLICAASGNTFRWYDMGWYIQAPRKEREFVADITVRGGSTYYADSVKGRFTISRDNAKNTVYLQMNCLKPEDTAVYYCAVDFRRYPGFDYWGQGTQVTVSS”, the “polyreactivity (PSR sort gate)” value is “low polyreactivity”.
Consider “QVQIVESGGGIVQAGGSLRLSCAASGLTFHQYTMGWYRQAPGKERELVAAISSGGSTNYADSVKGRFTISRDNAKNTVFLQMNSLKPEDTAVYYCAADKYYFAYDYWGQGTQVNVSS”, for which the “polyreactivity (PSR sort gate)” value is “low polyreactivity”.
To “QVQIVESGGGLDQAGGSLRLSCADSGSILYYYAMGCYRQAPGKETELVATITDSGDSTYYADSVKGRFTISRDNAKNTVYLQMNSLKPEDTAVYYCAAEGRYFYFTVKMDYWGQGTQVTVSS” belongs “low polyreactivity”.
The same measure for “QVQIVESGGGLVQAGASLRLSCAASGSISKSYAMGWYRQAPGKERELVAAISWRGGSTYADSVKGRFTISRDNAENTVYSLMNSLKPEDTAVYYCAATNYGSFWGGQSERYDYWGQGTQVTVSS”: “low polyreactivity”; for “QVQIVESGGGLVQAGCILRLSCAASGSTFYVNAMGWYRQAPGKEWELVAVISTGGSTYYADSVKGRFTISRDNAKNTVYLQMNSLKPEDTAVYYCAKRDLPDCSGTPNVIPFDYWGQGTQVTVSS”: “low polyreactivity”; for “QVQIVESGGGLVQAGGRLRLSCAASGFTLYRYAMGWYRQAPGKEREFVAAITRTGGTTYYADSVKGRFTISRDNAKNTVYLQMNSLKPEDTAVYYCAAGANAWYSYRYDYWGQGTQVTVSS”: “high polyreactivity”.
For the sequence “QVQIVESGGGLVQAGGRLRLSCAASGGIFKTYPMGWYRQAPGKERELVARINSRGGRTYYADSVKGRFTISRDYAKKTVYLQMNSLKPEATAVYYCAVRNPRYFNEYDYWGQGTQVTVSS”, the “polyreactivity (PSR sort gate)” value is listed as “low polyreactivity”.
The same measure for “QVQIVESGGGLVQAGGSLRFSCAASGRTFGTNTMGWYRQAPGKERELVATISSSSGSTYYADSVKGRFTISRDNAKNTVYLQMNSLKPEDTAVYYCAALSRWRYKRYDYWGQGTQVTVSS”: “high polyreactivity”.
On to “QVQIVESGGGLVQAGGSLRISCAASGFTFRYYVMGWYRQAPGKEREFVAAISRSGGITYADSVKGRFTISRDNAKNTVYLQMNSLKPEDTAVYYCNAKSRTGYGRGDYWGQGTQVTVSS”, for which the “polyreactivity (PSR sort gate)” value is given as “high polyreactivity”.
The same measure for “QVQIVESGGGLVQAGGSLRISCAASGFTFYPYTMGWYRQAPGKEREFVAAISWNCGSTYYADSVKGRFTISCDNAKNTVYLQMNSLKPEDSAVYYCAKRSYRSSARELDYWGQGTQVTVSS”: “low polyreactivity”.
To “QVQIVESGGGLVQAGGSLRISCAASGRTFVYNTMGWSRQAPGKERELVAAITDRGTSTFYADSVKGRFTISRDNAKNTVDLQMNSLKPEDTAVYYCAKDWLVTEFDYWAQGTQVTVSS” belongs “low polyreactivity”.

(Values after the nanobody polyreactivity screen of Harvey et al. (2022).)
